Test: soluble on expression in E. coli; label from the status in PepcDB or PDB records

Sequence | soluble on expression in E. coli
ATFSKLLYRHRQFYTQFPWVEDKIREVCHHLDVSEELLPTGERLSSRRLRTIGIDLGRSSGFYSLAYLFEDPFVNIHGEKRLRPDFLVDVGQRVSFAGAPLYAAIHESIYGGIGGTTTNWSAHRIREEFPGCEENADPRSAEPFYLTGEHIFPWQFDEDPALQPYKAAAEQLATTQWEHSPYDAEVLKEQAAVTAACVYLDDAFVPFELSMDTAHTYRDLRLHVTNRFQHDGIRWDGAGILSTLRDKVLDH | not soluble
MGSDKIHHHHHHMLNDFVDRCVWAADLSAEQRDRVRRAMFVREYTQGDYVCHKGEIAEHWLGVLEGIVKITTVSPSGKSVTFTGVPTGGWFGEGAVLKSEIRKYDVMALRRSTIAFLPRDTFQWLLDTSLPFTRFLLTQFNERLGQFIAAVEYERLLDIDSRVARAVSSLFNEHLYPGIGNTLEISQEEIGLLAGISRQRANQALKVLEQQGLVRVDYGVIEVLDLEGLRQYGE | not soluble
MTVTNMTEWFAKGVEALHHDHVYLARACFEQAVTEQRSPLSSSYLALCQAKTRGTFSDAIASAREAVAADPANPALYHNLGCIYLLAGKRTEAIETFRQGLEHHHHHH | not soluble
NIQGRTARQTDYLFQIKKHDITFGIGPAGTGKTYLAVACAVDALERELVSRVILVRPAVEAGERLGFLPGDMVQKVDPYLRPLYDALYDLMGFEKVSKHFERGIIEIAPLAFMRGRTLNQSFIILDEAQNTTAEQMKMFLTRIGFGSKAVITGDITQIDLPKHQKSGLVEAERVLKNVNGIAFTRFRTEDVVRHPLVQRIVDAYEKYAPDK | not soluble
MSLKKITGDDVLIPLETPESMHKEYIQNYLNLTRNTGNLMLFAGDQKIEHLNEDFYGKDISKDDADPEHLFKIAENSKIGGFAVQFGLLSRYGRDHKDINYIVKLNSKTNLVDTNQKDPLSRALLDINDILEFKKNSGINIVGVGYTIYLGSEYESEMLSEASKIIYEAHKGGLVVILWIYPRGKAVKDEKDSELISGATGVAACLGADFVKVNYPKSENPAESFKEAVMAAGRTKVVCAGGSSTDIESFLKQLYEQIHISGASGNATGRNIHQKSLSDAVSMCNAIYAITIDGKTVSEALNIYNERKSEGHHHHHH | soluble
MGSDKIHHHHHHMPRSARIDIPNLLQHVIVRGIERRDIFLSDDDRWDFRNRLQKLLLEMDVDCLAWSLMSNHFHLLLRPTRTPLAPFMRRLLTGYAVSFNLRHNRSGHLFQNRYKSIVCDEDSYLLELVRYIHLNPLRAGIVADLGALDTFPWSGHAMLMGKIVLEGQGINEVLRYFGPGVSASRRTYREFMADGVLQGERPDLVGKRSGASGGGCPASDRRILGDENFVEQLKTEECLHQQLRRPMSIESIVATIADQYGVAPKAIASKSRLPRTLDARAVVCYTAVEEGHTGAEVGRVLGMTRSGVAIARRRGEEVLARIESTAEFQHDTRLDSTN | not soluble
MGSDKIHHHHHHMASFVDKLHPLVLNIGLAIHNADWNWKNVNSPFTRLYYVTEGTAQVLISGKTQILKANHMYFIPAFTKHSYICNSYFSHYYLHIYEEHQSDSNLLDNWDFPIEIPAVEIDLALFQRLCTINPHMTLQKSDPTSYDNNYTLMQNLLKNKQRTLSDKIESRGIVYQLLARFLKRAQVKMELKDNRIEEAIHYIRKHINETIDLRVLAENSCLSKDHFIRLFKKETGDTPLKYINRKKIEKAQLILITDDMSIKNVALNLAFEDYSYFNRLFKKITGITPQEYRTSYHS | not soluble
NIDLDVQNMAQNALKFGYDEIVKRDKDANLSTLNGAMVVVNHQSGDVLALVGGVDYEKSNYNRATQSMRQPGSSFKPFVYQVAINLGYSPMSEIADISRIFEGGAGNNEDWKPKNEGGKFLGLITLKEALTRSRNLATINLALDMGLDVLYSKLMEFGFKDIPPNLSIVLGSFGISPLEYSKFYTMFGNYGTIKDPQIIRQVQDKTGKTIMEFNSNERKVSDEAQSFLVLDMMRNVVEKGTGRNARVKDIEIAGKTGTTNKSVDAWFCGLTPEIEAIIWYGNDNNKPMRYTEGGARTAAPVFREFLTQYIEKFPDTTR | not soluble
SLTEKDVLSQEEIDALLDSVDESIDGETNDEELNSSDQPARKKPEDTTGQELNSTFDSDIKVAEEGVKTLNFTGQERIVKGQLPVLDKIYDRAVRLFAADIYHLTARDFEIKQDPLLITKHKEFMRSLPNPSLIGIYKFKPLRGKGIILFDSTFVYDLVDYYFGGNSQFGAQKDKTDFTATELRVMEVVTKKLVTNLTHAWEPIIQLDVTKFNDETNPQLVNIAEPEEMLLVARFLLNFGKETGAFYFILPYSMLEPIKQQLELGASRPDDEIDPNWINSLKEELMDVELTVSASMAETVSTLGQVMAWKVGDFVPLEINEEVTLDIEGTPSFTATLGSANEKRALKIIKIIRY | soluble
MKSEKETIYDYAAELKLLSFKEELECTLSLAAEENWNHLQFLTELLGKESARRRECRRRSRIRSAGFPQMKYLHELVMEDMPKEAQVILPELETLDFIRQGRNLVLYGNPGTGKTHIATALGIKACQQDFTVLFTSVPVLLTQIREAKSAKTLRTLQLRFEKYDLVICDEFGYVSCDKEGGELLFNHLSLRAGKKATIITTNLAFNRWNEIIKDKVLVAAMVDRLTHKAYLVNMTGLSYRLKETQKMRQDKLEHHHHHH | not soluble
QNDLMIQSQVKFYTILFSARRATPELEIPEGSFYNGIRGYNLFVAKKDRRTGMLHDMMIYDHSQGFADARIIVADSGKLKMDEGKTFLTLMLHSGETFQNLRSQQTESNAPTPYMRERFRTKEIVIPFDANFSLMDEGAMRGEYVGKNLIQLQRFIDTVTLRVDSASFRNANNLYIQTYNAR | not soluble
MSLILRRVFIAIGCVLFSPLSQANSSLGEVNIELRGNVVDFTCAVVAGDSNKSVNLGTWPTKQLHAAGDATQPVAFSLKLEGCPPGSASITFSGTPAPGTALLALADTAMAQKLAIEIRDGDQRRLPLEQASKAVDIDNNGNATLKFYANYIALADGVQPGLANADATFLINYNEGGSHHHHHH | soluble
MSKAVIDTGVFVDYIDRKSPLHDVARNVINSIGQLEVLLPYVTIAEICYVTARVLREAGIEEWLEKSVEFVEWLQRHPAVEVVCSTELDVEAAKVKLRYGLALADCYVLALSKLKNCKAVFRKREKEMPDKVEKDFDVIFLEDYVGGDR | not soluble
MDINTDKYKNITRNLEREMINLNPIQRGGILPTESKKIIYEYWDGYSVCDYCSGRLDQIETPPINEFLEDMSKFLGMDITRPTHGARESKYAVMNSICKEGDYVVLDGNAHYTSYVALERAKLNYEKTDIEEYPTFRVIPESYAEKIDMLEDSKKNIGLILLTHVDGNYGNVADVEKVGKIAKSKGYPFLLNCAYSAGRMPIDGKKLNVDFIAASGHKSMAASGPCGLLSINKKYENEVLETSKVNVLKELQMLGCTSRGIPILSLMASFEHLIERVKKWDLELEKTRKVVNELEPLGFKQIGEKPRNHDIIRFETPILDEIAEKDKRRGFFFYEELKKRGIGGIRRGVTKEFKMSVYGLTNTQVDYVINSMKSIINELR | not soluble
MDSPIINEQFWDALFFNGTMPWDRSQTPNELKHYLKRIADKTHSVFIPGCGAAYEVSHFVDCGHDVIAMDYSAEAVNLAKSQLGQHQDKVMLGDVFNADFSREFDVIYERAFLAALPREIWGDYFAMIERLLPSNGLLVGYFVISDDYRSRFPPFCLRSGEIEQKLEANFHLIESTPVTDSVDVFKGKEQWMVWQKLEHHHHHH | not soluble
MNRLMTLTGAGLALAFSVSIAQAQVVVSSKIDTEGGVLGNIILAVLNQNKIETTDRIQLGATPVVRKAITAGEIDIYPEYTGNAAFFFSKADDPLWKDAAKGYEEAKTLDYDANKIVWLAPSPANNTWAIALRKDVADKNNLKTLSDFGKYVAGGGTVVLAASSEFVNSAAALPAFQTTYGFTMKPDQLITLSGGDTAATIAAAANQTNNANAAMVYGTDGGIAPSGLVVLEDDKHVQPVYQPAPIIREEVLKKHPNIEELLKPVFEKLDLATLQDLNARVQVGGEQAKTVAMDFLTKNGFAK | not soluble
MGSDKIHHHHHHMLDHLCVNMLSSCPRCASSSGNRASRRYPMRINADFTRRAAVHFDQTDWVPSPAPGVERKMLDRIGAEVARATTIVRFAPGSAFSAHTHDGGEEYLVLDGVFQDELGDFPVGSYVRNPPTSSHTPATEPGATILVKLHQFDPADRTEVRRSINGKSDETLFSDSHEEVRLESWAAGAQVTRDLPGGIEVFVLEGGFQEGGETFSRWDWLRLPPGARLDLTAGAEGARVWVKSGHLAAMV | not soluble
